Columns and labels:
Test in all cases: fluorescence polarization
[1] = target: T1, ZNF410 FL DEAED-to-AAAAA (Homo sapiens, UniProt Q86VK4 1-478, D143A;E144A;E146A;D147A)
T1 sequence: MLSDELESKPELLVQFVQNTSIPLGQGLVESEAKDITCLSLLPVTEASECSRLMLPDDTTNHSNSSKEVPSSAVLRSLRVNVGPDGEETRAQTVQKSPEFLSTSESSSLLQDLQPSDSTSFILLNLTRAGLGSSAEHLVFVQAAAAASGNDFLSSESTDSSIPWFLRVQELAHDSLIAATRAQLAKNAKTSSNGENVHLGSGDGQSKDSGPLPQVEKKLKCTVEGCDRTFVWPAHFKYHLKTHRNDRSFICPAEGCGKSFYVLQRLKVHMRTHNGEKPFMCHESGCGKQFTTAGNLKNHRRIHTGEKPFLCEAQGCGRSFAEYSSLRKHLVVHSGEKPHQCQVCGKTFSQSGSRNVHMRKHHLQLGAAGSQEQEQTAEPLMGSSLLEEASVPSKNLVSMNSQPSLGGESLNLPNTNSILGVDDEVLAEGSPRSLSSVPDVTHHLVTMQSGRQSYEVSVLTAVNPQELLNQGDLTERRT

[2] = target: T2, ZNF410 FL seven S/T-to-D/E (Homo sapiens, UniProt Q86VK4 1-478, S148D;S154D;S155D;S157D;T158E;S160D;S161D)
T2 sequence: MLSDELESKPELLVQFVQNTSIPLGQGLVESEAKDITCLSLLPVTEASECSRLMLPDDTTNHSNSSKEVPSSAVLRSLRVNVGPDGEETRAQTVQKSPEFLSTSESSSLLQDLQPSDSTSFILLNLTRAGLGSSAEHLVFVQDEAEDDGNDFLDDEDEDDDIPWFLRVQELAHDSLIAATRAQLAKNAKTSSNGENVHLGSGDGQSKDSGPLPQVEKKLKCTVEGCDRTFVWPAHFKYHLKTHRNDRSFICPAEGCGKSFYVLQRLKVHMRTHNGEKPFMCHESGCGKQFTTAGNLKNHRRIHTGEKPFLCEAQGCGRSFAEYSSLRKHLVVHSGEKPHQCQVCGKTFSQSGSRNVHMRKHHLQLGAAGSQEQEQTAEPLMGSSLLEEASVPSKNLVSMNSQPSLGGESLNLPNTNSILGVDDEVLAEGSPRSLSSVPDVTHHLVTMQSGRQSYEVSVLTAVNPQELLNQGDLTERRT

[3] = target: T3, ZNF410 NT (Homo sapiens, UniProt Q86VK4 1-216)
T3 sequence: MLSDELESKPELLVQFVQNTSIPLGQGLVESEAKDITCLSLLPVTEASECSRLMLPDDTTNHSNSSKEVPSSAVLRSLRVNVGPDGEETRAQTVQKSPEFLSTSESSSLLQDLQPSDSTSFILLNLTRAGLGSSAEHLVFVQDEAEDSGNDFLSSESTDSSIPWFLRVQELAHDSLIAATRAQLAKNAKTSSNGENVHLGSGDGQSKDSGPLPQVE

B1: FAM 17-bp ZNF410 motif duplex (dsDNA)
DNA 1: CACATCCCATAATAATG
DNA 2: CATTATTATGGGATGTG
[1]
  binding signal: > 4 fold higher affinity than wild-type FL
[2]
  binding signal: > 6 fold lower affinity than wild-type FL
[3]
  binding result: no binding

From publication PMC9976917
